tested on: c-Src; assay: phosphorylation enrichment, bacterial display (enrichment ratio); higher = better substrate or ligand; peptides without Tyr show the background
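Also: 11-residue human phosphosite peptides and single-mutation variants displayed on the E. coli surface, counted by deep sequencing, each peptide's frequency after selection divided by its frequency in the unselected input library; frequency after pTyr selection over input frequency; kinase dosed for 20-30% of maximal phosphorylation in three min.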

| Sequence | phosphorylation enrichment |
| --- | --- |
| TVEDHDYEGGI [TKT_Y563_Y563D] | 0.526 |
| FEEDSYVERSQ [RET_Y905_K907E_YF] | 0.526 |
| DDEESYENVPR [FCRL3_Y722_N721S] | 0.462 |
| LVSCAYQVARG [FGFR1_Y605] | 0.577 |
| ILKPDYQPLAV [HYDIN_Y1072_I1077V] | 0.418 |
| GGTTMYPGIAD [ACTC1_Y308] | 0.484 |
| PIPAAYNKFDQ [CDC73_Y290_R292K_YF] | 0.611 |
| KLKRSYSSRDI [USP8_Y717_P720R] | 0.458 |
| EEETDYTPVWC [UROD_Y30_G25E] | 0.503 |
| NQELIYEGRRL [TBK1_Y354] | 7.87 |
| DESEDCRDTVV [CNNM3_Y456_Y456C] | 0.474 |
| GDYYRYLAEVA [YWHAG_Y133] | 1.93 |
| SGGGLYRDMGA [CBX8_Y321] | 0.373 |
| DYDHSYYFIAT [ESD_Y262_G257D] | 1.81 |
| YQEPVYSVAFS [TBL1X_Y509_H504Y] | 8.72 |
| KERNQYGGVMV [MMP21_Y347_E349G] | 0.507 |
| SQETFYRVSNM [ABCD1_Y181_Q178E_YF] | 0.49 |

| Sequence | phosphorylation enrichment |
| --- | --- |
| RSSGSYGGGGQ [HNRNPA1_Y341_P340S] | 0.366 |
| PLDGEYFILQI [TP53_Y327_T329I] | 2.88 |
| SSNLYYRWLTA [CNGA3_Y169] | 2.87 |
| SCPANYFAFKI [FAM3D_Y65_P60S] | 2.62 |
| GDKKAYVRLAP [RPL23A_Y137_E133D] | 0.449 |
| ADLTEYLSTHY [UQCRC1_Y219] | 0.625 |
| TLGPFYPSLLF [CRYAA_Y18_R21L] | 0.455 |
| PDDPSYSLVDD [PSTPIP2_Y323_N322S] | 0.91 |
| AVRYIYTIDGS [DCX_Y105_G100A] | 3.18 |
| FADTAYNYRHG [PAH_Y166_I164T] | 0.449 |
| GRQGIYTENKR [GPR143_Y231_E235K] | 0.529 |
| ASFSLYEPAKM [MKI67_Y340_P338S] | 1.25 |
| IKNSGYISQYL [EIF2AK3_Y585_R588Q] | 0.406 |
| DYTEAYNPKIK [CLK1_Y305] | 0.483 |
| KRLKDYLMVLQ [USP25_Y425_T427M] | 0.444 |
| MSSLPYMKMIF [SLC4A11_Y853] | 0.813 |

molecular target: MERTK (UniProt Q12866); assay: as above
Sequence (Q12866 whole entry, looked up): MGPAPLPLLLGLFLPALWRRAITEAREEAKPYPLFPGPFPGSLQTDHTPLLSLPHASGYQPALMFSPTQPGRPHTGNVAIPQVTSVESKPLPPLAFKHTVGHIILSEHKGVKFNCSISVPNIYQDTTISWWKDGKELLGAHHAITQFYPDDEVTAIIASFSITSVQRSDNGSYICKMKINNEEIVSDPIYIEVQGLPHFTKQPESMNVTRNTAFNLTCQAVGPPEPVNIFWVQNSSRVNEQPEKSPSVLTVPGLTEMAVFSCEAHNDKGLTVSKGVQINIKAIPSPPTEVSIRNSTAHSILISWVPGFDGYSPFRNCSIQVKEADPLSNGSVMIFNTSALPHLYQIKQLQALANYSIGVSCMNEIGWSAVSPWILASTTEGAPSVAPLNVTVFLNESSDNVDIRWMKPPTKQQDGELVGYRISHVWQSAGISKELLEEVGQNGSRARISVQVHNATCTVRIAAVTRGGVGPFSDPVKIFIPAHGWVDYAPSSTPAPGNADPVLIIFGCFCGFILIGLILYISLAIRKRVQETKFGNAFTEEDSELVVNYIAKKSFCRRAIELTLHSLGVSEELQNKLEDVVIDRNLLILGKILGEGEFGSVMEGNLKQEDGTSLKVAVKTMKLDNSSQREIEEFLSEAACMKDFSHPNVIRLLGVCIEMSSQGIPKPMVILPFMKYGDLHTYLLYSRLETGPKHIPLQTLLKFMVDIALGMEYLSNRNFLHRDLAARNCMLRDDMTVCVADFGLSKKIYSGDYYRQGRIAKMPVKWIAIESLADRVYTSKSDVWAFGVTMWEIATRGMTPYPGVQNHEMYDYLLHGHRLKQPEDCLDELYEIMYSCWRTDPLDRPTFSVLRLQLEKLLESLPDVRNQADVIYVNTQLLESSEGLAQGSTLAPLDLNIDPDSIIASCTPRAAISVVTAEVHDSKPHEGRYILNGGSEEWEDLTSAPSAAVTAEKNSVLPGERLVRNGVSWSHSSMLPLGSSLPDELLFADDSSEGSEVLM

| Sequence | phosphorylation enrichment |
| --- | --- |
| TVEDHDYEGGI [TKT_Y563_Y563D] | 0.49 |
| FEEDSYVERSQ [RET_Y905_K907E_YF] | 0.415 |
| DDEESYENVPR [FCRL3_Y722_N721S] | 0.47 |
| LVSCAYQVARG [FGFR1_Y605] | 0.424 |
| ILKPDYQPLAV [HYDIN_Y1072_I1077V] | 0.448 |
| GGTTMYPGIAD [ACTC1_Y308] | 0.418 |
| PIPAAYNKFDQ [CDC73_Y290_R292K_YF] | 0.415 |
| KLKRSYSSRDI [USP8_Y717_P720R] | 0.432 |
| EEETDYTPVWC [UROD_Y30_G25E] | 0.504 |
| NQELIYEGRRL [TBK1_Y354] | 0.581 |
| DESEDCRDTVV [CNNM3_Y456_Y456C] | 0.518 |
| GDYYRYLAEVA [YWHAG_Y133] | 2.63 |
| SGGGLYRDMGA [CBX8_Y321] | 0.42 |
| DYDHSYYFIAT [ESD_Y262_G257D] | 3.77 |
| YQEPVYSVAFS [TBL1X_Y509_H504Y] | 12.7 |
| KERNQYGGVMV [MMP21_Y347_E349G] | 0.394 |
| SQETFYRVSNM [ABCD1_Y181_Q178E_YF] | 0.448 |

| Sequence | phosphorylation enrichment |
| --- | --- |
| RSSGSYGGGGQ [HNRNPA1_Y341_P340S] | 0.415 |
| PLDGEYFILQI [TP53_Y327_T329I] | 1.22 |
| SSNLYYRWLTA [CNGA3_Y169] | 8.61 |
| SCPANYFAFKI [FAM3D_Y65_P60S] | 7.13 |
| GDKKAYVRLAP [RPL23A_Y137_E133D] | 0.638 |
| ADLTEYLSTHY [UQCRC1_Y219] | 0.462 |
| TLGPFYPSLLF [CRYAA_Y18_R21L] | 0.452 |
| PDDPSYSLVDD [PSTPIP2_Y323_N322S] | 0.563 |
| AVRYIYTIDGS [DCX_Y105_G100A] | 0.629 |
| FADTAYNYRHG [PAH_Y166_I164T] | 0.35 |
| GRQGIYTENKR [GPR143_Y231_E235K] | 0.53 |
| ASFSLYEPAKM [MKI67_Y340_P338S] | 0.769 |
| IKNSGYISQYL [EIF2AK3_Y585_R588Q] | 0.374 |
| DYTEAYNPKIK [CLK1_Y305] | 0.419 |
| KRLKDYLMVLQ [USP25_Y425_T427M] | 0.428 |
| MSSLPYMKMIF [SLC4A11_Y853] | 0.566 |

tested on: c-Abl (mouse); assay: as above

| Sequence | phosphorylation enrichment |
| --- | --- |
| TVEDHDYEGGI [TKT_Y563_Y563D] | 0.654 |
| FEEDSYVERSQ [RET_Y905_K907E_YF] | 0.866 |
| DDEESYENVPR [FCRL3_Y722_N721S] | 0.687 |
| LVSCAYQVARG [FGFR1_Y605] | 0.641 |
| ILKPDYQPLAV [HYDIN_Y1072_I1077V] | 0.73 |
| GGTTMYPGIAD [ACTC1_Y308] | 0.561 |
| PIPAAYNKFDQ [CDC73_Y290_R292K_YF] | 0.684 |
| KLKRSYSSRDI [USP8_Y717_P720R] | 0.51 |
| EEETDYTPVWC [UROD_Y30_G25E] | 0.937 |
| NQELIYEGRRL [TBK1_Y354] | 5 |
| DESEDCRDTVV [CNNM3_Y456_Y456C] | 0.777 |
| GDYYRYLAEVA [YWHAG_Y133] | 1.09 |
| SGGGLYRDMGA [CBX8_Y321] | 0.502 |
| DYDHSYYFIAT [ESD_Y262_G257D] | 0.877 |
| YQEPVYSVAFS [TBL1X_Y509_H504Y] | 29.6 |
| KERNQYGGVMV [MMP21_Y347_E349G] | 0.44 |
| SQETFYRVSNM [ABCD1_Y181_Q178E_YF] | 0.86 |

| Sequence | phosphorylation enrichment |
| --- | --- |
| RSSGSYGGGGQ [HNRNPA1_Y341_P340S] | 0.527 |
| PLDGEYFILQI [TP53_Y327_T329I] | 1.24 |
| SSNLYYRWLTA [CNGA3_Y169] | 3.22 |
| SCPANYFAFKI [FAM3D_Y65_P60S] | 3.31 |
| GDKKAYVRLAP [RPL23A_Y137_E133D] | 0.519 |
| ADLTEYLSTHY [UQCRC1_Y219] | 0.649 |
| TLGPFYPSLLF [CRYAA_Y18_R21L] | 0.667 |
| PDDPSYSLVDD [PSTPIP2_Y323_N322S] | 1.03 |
| AVRYIYTIDGS [DCX_Y105_G100A] | 0.727 |
| FADTAYNYRHG [PAH_Y166_I164T] | 0.46 |
| GRQGIYTENKR [GPR143_Y231_E235K] | 0.46 |
| ASFSLYEPAKM [MKI67_Y340_P338S] | 0.825 |
| IKNSGYISQYL [EIF2AK3_Y585_R588Q] | 0.435 |
| DYTEAYNPKIK [CLK1_Y305] | 0.678 |
| KRLKDYLMVLQ [USP25_Y425_T427M] | 0.5 |
| MSSLPYMKMIF [SLC4A11_Y853] | 0.732 |

molecular target: EPHB1 (UniProt P54762); assay: as above
Sequence (P54762 whole entry, looked up): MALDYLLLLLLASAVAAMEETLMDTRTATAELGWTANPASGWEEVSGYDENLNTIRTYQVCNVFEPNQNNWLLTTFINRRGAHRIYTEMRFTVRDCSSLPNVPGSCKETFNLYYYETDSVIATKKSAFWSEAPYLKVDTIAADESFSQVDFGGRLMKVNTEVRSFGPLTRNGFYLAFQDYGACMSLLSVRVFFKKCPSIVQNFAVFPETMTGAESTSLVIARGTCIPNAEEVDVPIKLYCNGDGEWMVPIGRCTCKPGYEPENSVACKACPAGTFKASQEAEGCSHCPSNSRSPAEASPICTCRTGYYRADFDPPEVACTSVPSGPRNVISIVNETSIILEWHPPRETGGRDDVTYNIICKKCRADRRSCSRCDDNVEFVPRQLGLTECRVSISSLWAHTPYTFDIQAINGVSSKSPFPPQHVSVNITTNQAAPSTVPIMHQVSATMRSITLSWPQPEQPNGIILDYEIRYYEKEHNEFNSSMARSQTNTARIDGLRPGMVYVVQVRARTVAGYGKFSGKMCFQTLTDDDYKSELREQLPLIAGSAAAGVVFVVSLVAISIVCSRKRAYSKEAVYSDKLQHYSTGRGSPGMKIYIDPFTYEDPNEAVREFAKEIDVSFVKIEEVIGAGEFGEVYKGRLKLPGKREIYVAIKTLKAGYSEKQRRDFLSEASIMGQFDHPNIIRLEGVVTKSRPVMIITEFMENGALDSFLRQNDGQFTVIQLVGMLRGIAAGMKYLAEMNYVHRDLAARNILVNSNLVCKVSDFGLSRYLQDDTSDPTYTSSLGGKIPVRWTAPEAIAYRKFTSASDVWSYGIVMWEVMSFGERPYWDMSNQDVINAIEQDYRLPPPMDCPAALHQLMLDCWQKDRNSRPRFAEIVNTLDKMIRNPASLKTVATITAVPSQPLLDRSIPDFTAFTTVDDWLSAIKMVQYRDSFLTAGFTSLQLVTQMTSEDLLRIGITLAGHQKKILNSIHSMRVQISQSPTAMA

| Sequence | phosphorylation enrichment |
| --- | --- |
| TVEDHDYEGGI [TKT_Y563_Y563D] | 0.543 |
| FEEDSYVERSQ [RET_Y905_K907E_YF] | 0.67 |
| DDEESYENVPR [FCRL3_Y722_N721S] | 0.466 |
| LVSCAYQVARG [FGFR1_Y605] | 0.61 |
| ILKPDYQPLAV [HYDIN_Y1072_I1077V] | 0.409 |
| GGTTMYPGIAD [ACTC1_Y308] | 0.424 |
| PIPAAYNKFDQ [CDC73_Y290_R292K_YF] | 0.687 |
| KLKRSYSSRDI [USP8_Y717_P720R] | 0.351 |
| EEETDYTPVWC [UROD_Y30_G25E] | 0.689 |
| NQELIYEGRRL [TBK1_Y354] | 0.518 |
| DESEDCRDTVV [CNNM3_Y456_Y456C] | 0.788 |
| GDYYRYLAEVA [YWHAG_Y133] | 3.59 |
| SGGGLYRDMGA [CBX8_Y321] | 0.53 |
| DYDHSYYFIAT [ESD_Y262_G257D] | 5.16 |
| YQEPVYSVAFS [TBL1X_Y509_H504Y] | 18.9 |
| KERNQYGGVMV [MMP21_Y347_E349G] | 0.361 |
| SQETFYRVSNM [ABCD1_Y181_Q178E_YF] | 0.412 |

| Sequence | phosphorylation enrichment |
| --- | --- |
| RSSGSYGGGGQ [HNRNPA1_Y341_P340S] | 1.5 |
| PLDGEYFILQI [TP53_Y327_T329I] | 2.02 |
| SSNLYYRWLTA [CNGA3_Y169] | 1.52 |
| SCPANYFAFKI [FAM3D_Y65_P60S] | 3.97 |
| GDKKAYVRLAP [RPL23A_Y137_E133D] | 0.523 |
| ADLTEYLSTHY [UQCRC1_Y219] | 0.58 |
| TLGPFYPSLLF [CRYAA_Y18_R21L] | 0.687 |
| PDDPSYSLVDD [PSTPIP2_Y323_N322S] | 0.999 |
| AVRYIYTIDGS [DCX_Y105_G100A] | 0.65 |
| FADTAYNYRHG [PAH_Y166_I164T] | 0.533 |
| GRQGIYTENKR [GPR143_Y231_E235K] | 0.349 |
| ASFSLYEPAKM [MKI67_Y340_P338S] | 6.24 |
| IKNSGYISQYL [EIF2AK3_Y585_R588Q] | 0.414 |
| DYTEAYNPKIK [CLK1_Y305] | 0.422 |
| KRLKDYLMVLQ [USP25_Y425_T427M] | 0.503 |
| MSSLPYMKMIF [SLC4A11_Y853] | 0.474 |

From the supplement of paper PMC10065799, “High-throughput profiling of sequence recognition by tyrosine kinases and SH2 domains using bacterial peptide display” (eLife, 2023)
